Laboratory results reported in US20170275357A1 (Bristol-Myers Squibb, published 2017).
Read-outs that look alike come from different tables or passages of the source.

T1: human IL-17F homodimer (human, UniProt Q96PD4 31-163)
T1 sequence: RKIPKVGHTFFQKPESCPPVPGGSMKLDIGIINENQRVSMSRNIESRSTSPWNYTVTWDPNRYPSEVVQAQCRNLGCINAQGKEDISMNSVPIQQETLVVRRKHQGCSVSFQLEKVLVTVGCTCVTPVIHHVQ


What was measured:
[1] = molecular target: T2, human IL-17A/F heterodimer (human, UniProt Q16552 24-155; Q96PD4 31-163); experiment: cell-based or functional assay
[2] = molecular target: T1, human IL-17F homodimer; experiment: cell-based or functional assay
[3] = molecular target: T3, human IL-17A homodimer (human, UniProt Q16552 24-155); experiment: cell-based or functional assay
[4] = molecular target: T2, human IL-17A/F heterodimer; experiment: cell-based or functional assay; remark: listed apart in the source
[5] = molecular target: T1, human IL-17F homodimer; experiment: cell-based or functional assay; remark: listed apart in the source
[6] = molecular target: T3, human IL-17A homodimer; experiment: cell-based or functional assay; remark: listed apart in the source
[7] = molecular target: T1, human IL-17F homodimer; experiment: SPR Biacore T100, captured antibody, bivalent analyte model
Experimental: (§1) Binding kinetics and affinity studies were performed on a BIACORE® T100 system (GE Healthcare, Piscataway, N.J.). Methods for the BIACORE® T100 were programmed using BIACORE® T100 Control Software, v 2.0. For these experiments, the humanized anti-human IL-17A/F antibodies were captured onto a CM4 sensor chip via either goat anti-human IgG Fc-gamma antibody (Jackson ImmunoResearch, West Grove, Pa.) or goat anti-mouse IgG Fc-gamma antibody (Jackson ImmunoResearch). Binding experiments with the IL-17 molecules were performed at 25° C. in a buffer of 10 mM HEPES, 150 mM NaCl, 3 mM EDTA, 0.05% Surfactant P20 (GE Healthcare), 1 mg/mL bovine serum albumin, pH 7.4.
(§2) The capture antibody, goat anti-human IgG Fc-gamma, was diluted to concentration of 20 μg/mL in 10 mM sodium acetate pH 5.0, and then covalently immobilized to all four flow cells of a CM4 sensor chip using amine coupling chemistry (EDC:NHS). […] A capture antibody density of approximately 5000 RU was obtained. The humanized anti-human IL-17A/F antibodies were captured onto flow cell 2, 3, or 4 of the CM4 chip at a density ranging from 60-150 RU. Capture of the test antibodies to the immobilized surface was performed at a flow rate of 10 μL/min. The BIACORE® instrument measures the mass of protein bound to the sensor chip surface, and thus, capture of the test antibody was verified for each cycle. […] The serial dilutions were injected over the surface and allowed to specifically bind to the test antibody captured on the sensor chip. Duplicate injections of each antigen concentration were performed with an association time of 7 minutes and dissociation time of 15 minutes. Kinetic binding studies were performed with a flow rate of 50 μL/min. In between cycles, the flow cell was washed with 20 mM hydrochloric acid to regenerate the surface. This wash step removed both the captured test antibody and any bound antigen from the immobilized antibody surface. The test antibody was subsequently captured again in the next cycle.
(§3) Data was compiled using the BIACORE® T100 Evaluation software (version 2.0).

[8] = molecular target: T2, human IL-17A/F heterodimer; experiment: as above
Experimental: as §1, §2, §3

[9] = molecular target: T3, human IL-17A homodimer; experiment: as above
Experimental: as §1, §2, §3

[10] = molecular target: human IL-23Rα/human IL-12Rβ1 on BaF3 transfectants (human, UniProt Q5VWK5 24-629; P42701 24-662); experiment: cell-based or functional assay
human IL-23Rα/human IL-12Rβ1 on BaF3 transfectants, sequence (Q5VWK5 24-629, chain 1 of 2, other chains not shown): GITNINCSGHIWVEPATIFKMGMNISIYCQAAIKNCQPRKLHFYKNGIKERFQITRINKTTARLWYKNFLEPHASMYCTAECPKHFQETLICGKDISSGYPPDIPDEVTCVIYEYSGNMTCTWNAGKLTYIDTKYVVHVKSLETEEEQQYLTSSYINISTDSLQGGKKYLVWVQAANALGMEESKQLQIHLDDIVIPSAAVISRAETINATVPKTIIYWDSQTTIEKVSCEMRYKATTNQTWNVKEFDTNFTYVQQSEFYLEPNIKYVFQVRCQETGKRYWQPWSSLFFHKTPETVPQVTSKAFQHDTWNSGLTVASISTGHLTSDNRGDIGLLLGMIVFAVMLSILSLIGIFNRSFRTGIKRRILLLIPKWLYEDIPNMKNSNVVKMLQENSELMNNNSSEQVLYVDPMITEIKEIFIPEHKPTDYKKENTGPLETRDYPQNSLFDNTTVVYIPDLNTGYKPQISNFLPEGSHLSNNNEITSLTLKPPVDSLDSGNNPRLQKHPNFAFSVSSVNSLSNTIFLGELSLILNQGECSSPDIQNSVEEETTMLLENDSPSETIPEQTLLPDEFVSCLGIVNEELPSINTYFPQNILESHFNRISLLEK

Row | IC50, NIH/3T3/KZ170 NF-kB luciferase reporter [4] | IC50, NIH/3T3/KZ170 NF-kB luciferase reporter [5] | IC50, NIH/3T3/KZ170 NF-kB luciferase reporter [6] | Binder | also measured
1 | 0.81 nM | 0.83 nM | 1.5 nM | 339-125 (antibody, human IgG1, V domains shown) VH: QVQLVQSGAEVKKPGASVKVSCKASGYTFNEYTMHWVKQSHGQRLEWMGGINPNSGGVSYNQNFKGKATLTVDTSASTAYMELSSLRSEDTAVYYCARGGDGYYTNYFDIDYWGQGTTVTVSS VL: DIQMTQSPSSLSASVGDRVTITCSASSSVNYMHWYQQKPGKVPKLLIYDTSKLASGVPSRFSGSGSGTDFTLTISSLQPEDVATYYCQQWNSHPLTFGQGTKLEIK | Kd [7]: 0.1 nM; koff [7]: 0.0002 s⁻¹; kon [7]: 2e+06 M⁻¹ s⁻¹; Kd [8]: 0.3 nM; koff [8]: 0.0006 s⁻¹; kon [8]: 2e+06 M⁻¹ s⁻¹; Kd [9]: 1 nM; koff [9]: 0.003 s⁻¹; kon [9]: 2e+06 M⁻¹ s⁻¹
2 | 0.41 nM | 0.25 nM | 5.1 nM | 339-128 (antibody, human IgG1, V domains shown) VH: QVQLVQSGAEVKKPGASVKVSCKASGYTFTEYTMHWVRQAPGQRLEWMGGINPNSGGVSYNQNFKGKATLTVDTSASTAYMELSSLRSEDTAVYYCARGGDGYYTNYFDIDYWGQGTTVTVSS VL: DIQMTQSPSSLSASVGDRVTITCSASSSVNYMHWYQQKPGKVPKLLIYDTSKLASGVPSRFSGSGSGTDFTLTISSLQPEDVATYYCQQWNSHPLTFGQGTKLEIK | –
3 | 3.4 nM | 0.5 nM | 190 nM | 339-127 (antibody, human IgG1, V domains shown) VH: QVQLVQSGAEVKKPGASVKVSCKASGYTFNEYTMHWVKQSHGQRLEWMGGINPNSGGVSYNQNFKGRVTITRDTSASTAYMELSSLRSEDTAVYYCARGGDGYYTNYFDIDYWGQGTTVTVSS VL: DIQMTQSPSSLSASVGDRVTITCSASSSVNYMHWYQQKPGKVPKLLIYDTSKLASGVPSRFSGSGSGTDFTLTISSLQPEDVATYYCQQWNSHPLTFGQGTKLEIK | –

Second part, the binder before the results:

Row | Binder | IC50, NIH/3T3/KZ170 NF-kB luciferase reporter [4] | IC50, NIH/3T3/KZ170 NF-kB luciferase reporter [5] | IC50, NIH/3T3/KZ170 NF-kB luciferase reporter [6] | also measured
4 | 339-33 (antibody, human IgG1, V domains shown) VH: QVQLVQSGAEVKKPGASVKVSCKASGYTFTEYTMHWVRQAPGQRLEWMGGINPNSGGVSYNQNFKGRVTITRDTSASTAYMELSSLRSEDTAVYYCARGGDGYYTNYFDIDYWGQGTTVTVSS VL: EIVLTQSPDFQSVTPKEKVTITCSASSSVNYMHWYQQKPDQSPKLLIKDTSKLASGVPSRFSGSGSGTDFTLTINSLEAEDAATYYCQQWNSHPLTFGQGTKLEIK | – | – | – | IC50, NIH/3T3/KZ170 NF-kB luciferase reporter [1]: 9.7 nM; IC50, NIH/3T3/KZ170 NF-kB luciferase reporter [2]: 1.7 nM; IC50, NIH/3T3/KZ170 NF-kB luciferase reporter [3]: > 600 nM
5 | 339-104 (antibody, human IgG1, V domains shown) VH: QVQLVQSGAEVKKPGASVKVSCKASGYTFNEYTMHWVKQSHGQRLEWMGGINPNSGGVSYNQNFKGKATLTVDTSSSTAYMELSSLRSEDTAVFYCARGGDGYYTNYFDIDYWGQGTTVTVSS VL: DIQMTQSPSSLSASVGDRVTITCSASSSVNYMHWYQQKPGKVPKLLIYDTSKLASGVPSRFSGSGSGTDFTLTISSLQPEDVATYYCQQWNSHPLTFGQGTKLEIK | 0.83 nM | 0.83 nM | 1.5 nM | –
6 | 339-35 (antibody, human IgG1, V domains shown) VH: QVQLVQSGAEVKKPGASVKVSCKASGYTFNEYTMHWVKQSHGQRLEWMGGINPNSGGVSYNQNFKGRVTITRDTSASTAYMELSSLRSEDTAVYYCARGGDGYYTNYFDIDYWGQGTTVTVSS VL: EIVLTQSPDFQSVTPKEKVTITCSASSSVNYMHWYQQKPDQSPKLLIKDTSKLASGVPSRFSGSGSGTDFTLTINSLEAEDAATYYCQQWNSHPLTFGQGTKLEIK | 2.4 nM | 0.64 nM | > 600 nM | –
7 | 339-71 (antibody, human IgG1, V domains shown) VH: QVQLVQSGAEVKKPGASVKVSCKASGYTFTEYTMHWVRQAPGQRLEWMGGINPNSGGVSYNQNFKGKATLTVDTSASTAYMELSSLRSEDTAVYYCARGGDGYYTNYFDIDYWGQGTTVTVSS VL: EIVLTQSPDFQSVTPKEKVTITCSASSSVNYMHWYQQKPDQSPKLLIKDTSKLASGVPSRFSGSGSGTDFTLTINSLEAEDAATYYCQQWNSHPLTFGQGTKLEIK | 0.37 nM | 0.2 nM | 16 nM | –
8 | 339-38 (antibody, human IgG1, V domains shown) VH: QVQLVQSGAEVKKPGASVKVSCKASGYTFNEYTMHWVKQSHGQRLEWMGGINPNSGGVSYNQNFKGKATLTVDTSASTAYMELSSLRSEDTAVYYCARGGDGYYTNYFDIDYWGQGTTVTVSS VL: EIVLTQSPDFQSVTPKEKVTITCSASSSVNYMHWYQQKPDQSPKLLIKDTSKLASGVPSRFSGSGSGTDFTLTINSLEAEDAATYYCQQWNSHPLTFGQGTKLEIK | 0.27 nM | 0.27 nM | 8.2 nM | Kd [7]: 0.3 nM; koff [7]: 0.0006 s⁻¹; kon [7]: 2e+06 M⁻¹ s⁻¹; Kd [8]: 0.4 nM; koff [8]: 0.0004 s⁻¹; kon [8]: 1e+06 M⁻¹ s⁻¹; Kd [9]: 1 nM; koff [9]: 0.005 s⁻¹; kon [9]: 4e+06 M⁻¹ s⁻¹
9 | 339-126 (antibody, human IgG1, V domains shown) VH: QVQLVQSGAEVKKPGASVKVSCKASGYTFTEYTMHWVRQAPGQRLEWMGGINPNSGGVSYNQNFKGRVTITRDTSASTAYMELSSLRSEDTAVYYCARGGDGYYTNYFDIDYWGQGTTVTVSS VL: DIQMTQSPSSLSASVGDRVTITCSASSSVNYMHWYQQKPGKVPKLLIYDTSKLASGVPSRFSGSGSGTDFTLTISSLQPEDVATYYCQQWNSHPLTFGQGTKLEIK | – | – | – | IC50, NIH/3T3/KZ170 NF-kB luciferase reporter [1]: 24 nM; IC50, NIH/3T3/KZ170 NF-kB luciferase reporter [2]: 1.6 nM; IC50, NIH/3T3/KZ170 NF-kB luciferase reporter [3]: > 600 nM
10 | 339-105 (antibody, human IgG1, V domains shown) VH: QVQLVQSGAEVKKPGASVKVSCKASGYTFTEYTMHWVRQAPGQRLEWMGGINPNSGGVSYNQNFKGRVTITRDTSSSTAYMELSSLRSEDTAVFYCARGGDGYYTNYFDIDYWGQGTTVTVSS VL: DIQMTQSPSSLSASVGDRVTITCSASSSVNYMHWYQQKPGKVPKLLIYDTSKLASGVPSRFSGSGSGTDFTLTISSLQPEDVATYYCQQWNSHPLTFGQGTKLEIK | 23 nM | 2.6 nM | > 600 nM | –
11 | 339-37 (antibody, human IgG1, V domains shown) VH: QVQLVQSGAEVKKPGASVKVSCKASGYTFTEYTMHWVRQAPGQRLEWMGGINPNSGGVSYNQNFKGRVTITRDTSSSTAYMELSSLRSEDTAVFYCARGGDGYYTNYFDIDYWGQGTTVTVSS VL: EIVLTQSPDFQSVTPKEKVTITCSASSSVNYMHWYQQKPDQSPKLLIKDTSKLASGVPSRFSGSGSGTDFTLTINSLEAEDAATYYCQQWNSHPLTFGQGTKLEIK | 20 nM | 3.5 nM | > 600 nM | –
12 | 339-39 (antibody, human IgG1, V domains shown) VH: QVQLVQSGAEVKKPGASVKVSCKASGYTFNEYTMHWVKQSHGQRLEWMGGINPNSGGVSYNQNFKGKATLTVDTSSSTAYMELSSLRSEDTAVFYCARGGDGYYTNYFDIDYWGQGTTVTVSS VL: EIVLTQSPDFQSVTPKEKVTITCSASSSVNYMHWYQQKPDQSPKLLIKDTSKLASGVPSRFSGSGSGTDFTLTINSLEAEDAATYYCQQWNSHPLTFGQGTKLEIK | 0.23 nM | 0.25 nM | 7.6 nM | –
13 | human IL-23 (IL-23p19/IL-12B heterodimer) (ligand) chain 1: RAVPGGSSPAWTQCQQLSQKLCTLAWSAHPLVGHMDLREEGDEETTNDVPHIQCGDGCDPQGLRDNSQFCLQRIHQGLIFYEKLLGSDIFTGEPSLLPDSPVGQLHASLLGLSQLLQPEGHHWETQQIPSLSPSQPWQRLLLRFKILRSLQAFVAVAARVFAHGAATLSP chain 2: IWELKKDVYVVELDWYPDAPGEMVVLTCDTPEEDGITWTLDQSSEVLGSGKTLTIQVKEFGDAGQYTCHKGGEVLSHSLLLLHKKEDGIWSTDILKDQKEPKNKTFLRCEAKNYSGRFTCWWLTTISTDLTFSVKSSRGSSDPQGVTCGAATLSAERVRGDNKEYEYSVECQEDSACPAAEESLPIEVMVDAVHKLKYENYTSSFFIRDIIKPDPPKNLQLKPLKNSRQVEVSWEYPDTWSTPHSYFSLTFCVQVQGKSKREKKDRVFTDKTSATVICRKNASISVRAQDRYYSSSWSEWASVPCS | – | – | – | EC50, STAT3 phosphorylation in Baf3/huIL-23Ra/huIL-12Rb1 transfectants [10]: 0.02 nM
